This is an account of results in US20260348977 (published 2026).

For one assay, the target named is T1, non-sense peptide.
T1 chain: DSGPEYADVV
Put plainly: competition (chemiluminescence ELISA). In general terms: In an ELISA, binding on a coated surface is turned into a signal by an enzyme label.

A further assay has as its target T2, truncated peptide (human).
T2 chain: LNPDTGLWE
Put plainly: competition (chemiluminescence ELISA).

The next assay addresses T3, elongated peptide (human).
T3 chain: WSLNPDTGLWE
As to the kind of experiment: competition (chemiluminescence ELISA).

Assay [1] has as its target T4, standard/selection peptide SLNPDTGLWE (CILP-M) (human).
T4 chain: SLNPDTGLWE
Put plainly: competition (chemiluminescence ELISA, 20C, pH 7.4).

B1: NB326 #76 13B5-1C6-2C4 (antibody, V domains shown)
VH: QVQLQQSGPELVKPGASVRISCKASGYTFTNYYIHWVKQRPGQGLEWIGWISPGIVDTEYNEKFKNKATLTADKSSRTAYMQLSSLTSEDSAVYFCARRSAGSYGDFDYWGQGTTLTVSS
VL: DIVMTQSQKFMSTSVGDRVSVTCKASQNVGTDVVWYQQRPGQSPKALMYSASYRYSGVPDRFTGSGSGTDFTLTISNVQSEDLAEYFCQHYDNYPLTFGAGTKLELK
As a reminder, the IC50 is the concentration that gives 50% inhibition. A low value points to inhibition by little substance. For B1, the binding result in the assay with non-sense peptide, in the assay with truncated peptide and with elongated peptide was “no binding” each time. This molecule gave an IC50 in assay [1] of 2 ng/mL.
